Data: paper PMC10786891, “Massively parallel profiling of RNA-targeting CRISPR-Cas13d”

T1: EsCas13d, nuclease-dead (Eubacterium siraeum, UniProt B0MS50, R295A;H300A;R849A;H854A)
T1 sequence: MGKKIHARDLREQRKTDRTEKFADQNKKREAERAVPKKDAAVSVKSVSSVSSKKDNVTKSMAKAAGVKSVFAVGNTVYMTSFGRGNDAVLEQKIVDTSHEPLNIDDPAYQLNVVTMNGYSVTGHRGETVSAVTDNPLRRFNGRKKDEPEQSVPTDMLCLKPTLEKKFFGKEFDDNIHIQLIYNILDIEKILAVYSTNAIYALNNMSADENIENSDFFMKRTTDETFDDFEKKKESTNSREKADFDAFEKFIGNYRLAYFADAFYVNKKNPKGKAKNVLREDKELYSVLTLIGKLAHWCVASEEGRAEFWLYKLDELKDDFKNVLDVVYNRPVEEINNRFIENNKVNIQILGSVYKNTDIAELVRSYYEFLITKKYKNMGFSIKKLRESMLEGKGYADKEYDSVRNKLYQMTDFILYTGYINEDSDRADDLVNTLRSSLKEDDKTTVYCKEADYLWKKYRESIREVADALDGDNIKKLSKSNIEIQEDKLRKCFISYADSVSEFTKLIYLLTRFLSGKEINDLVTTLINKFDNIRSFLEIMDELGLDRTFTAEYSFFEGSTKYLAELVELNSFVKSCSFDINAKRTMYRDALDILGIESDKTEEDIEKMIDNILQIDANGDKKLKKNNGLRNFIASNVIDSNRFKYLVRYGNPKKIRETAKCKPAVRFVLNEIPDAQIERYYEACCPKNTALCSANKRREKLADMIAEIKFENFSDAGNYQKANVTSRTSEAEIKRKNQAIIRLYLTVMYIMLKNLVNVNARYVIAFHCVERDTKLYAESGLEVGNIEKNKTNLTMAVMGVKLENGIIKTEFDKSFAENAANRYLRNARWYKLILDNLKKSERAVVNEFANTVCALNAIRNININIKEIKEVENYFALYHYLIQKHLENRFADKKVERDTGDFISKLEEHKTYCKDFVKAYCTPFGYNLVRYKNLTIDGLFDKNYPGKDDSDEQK


target: T1, EsCas13d, nuclease-dead; test: crRNA (strand 1, pre-loaded); Mg2+; 40 mM Tris-HCl pH 7.5, 150 mM NaCl, 6 mM MgCl2, 1 mM DTT, 0.1% Tween-20, 0.2 mg/ml BSA; 25 C; 10 min per concentration, then washed; conditions: tags: His6-TwinStrep-SUMO cleaved; N-terminal SNAP kept (SNAP-Surface 488); label: 3' end held by stalled T7 RNA polymerase

| Binder | Kd |
| --- | --- |
| target 1 C2U,U8C (mixed) RNA 1: CACCCGUGCAAAAAUGCAGGGGUCUAAAACUGAGCGGAUAACCUCUCUAUGG RNA 2: GGGAAUGGAUCCACAUCUACGAAUUCGUACCAUAGAGAGGUUACCCGCUUACCGAGAUCGGAAGAGCACACGU | 10.1 ± 0.8 nM |
| target 1 C2U,U11C (mixed) RNA 1: CACCCGUGCAAAAAUGCAGGGGUCUAAAACUGAGCGGAUAACCUCUCUAUGG RNA 2: GGGAAUGGAUCCACAUCUACGAAUUCGUACCAUAGAGAGGCUAUCCGCUUACCGAGAUCGGAAGAGCACACGU | 9.5 ± 0.4 nM |
| target 1 insG 3' of 14,insG 3' of 14 (mixed) RNA 1: CACCCGUGCAAAAAUGCAGGGGUCUAAAACUGAGCGGAUAACCUCUCUAUGG RNA 2: GGGAAUGGAUCCACAUCUACGAAUUCGUACCAUAGAGAGGGGUUAUCCGCUCACCGAGAUCGGAAGAGCACACGU | 7.7 ± 0.6 nM |
| target 1 insU 3' of 15,insA 3' of 3 (mixed) RNA 1: CACCCGUGCAAAAAUGCAGGGGUCUAAAACUGAGCGGAUAACCUCUCUAUGG RNA 2: GGGAAUGGAUCCACAUCUACGAAUUCGUACCAUAGAGUAGGUUAUCCGCUACACCGAGAUCGGAAGAGCACACGU | 8.9 ± 0.6 nM |
| target 1 insG 3' of 9,insU 3' of 6 (mixed) RNA 1: CACCCGUGCAAAAAUGCAGGGGUCUAAAACUGAGCGGAUAACCUCUCUAUGG RNA 2: GGGAAUGGAUCCACAUCUACGAAUUCGUACCAUAGAGAGGUUAGUCCUGCUCACCGAGAUCGGAAGAGCACACGU | 20.3 ± 1.2 nM |
| target 1 insC 3' of 20,insU 3' of 5 (mixed) RNA 1: CACCCGUGCAAAAAUGCAGGGGUCUAAAACUGAGCGGAUAACCUCUCUAUGG RNA 2: GGGAAUGGAUCCACAUCUACGAAUUCGUACCACUAGAGAGGUUAUCCGUCUCACCGAGAUCGGAAGAGCACACGU | 8.6 ± 0.9 nM |
| target 1 del4 (mixed) RNA 1: CACCCGUGCAAAAAUGCAGGGGUCUAAAACUGAGCGGAUAACCUCUCUAUGG RNA 2: GGGAAUGGAUCCACAUCUACGAAUUCGUACCAUAGAGAGGUUAUCCGUCACCGAGAUCGGAAGAGCACACGU | 34 ± 7 nM |
| target 1 insC 3' of 14,insA 3' of 13 (mixed) RNA 1: CACCCGUGCAAAAAUGCAGGGGUCUAAAACUGAGCGGAUAACCUCUCUAUGG RNA 2: GGGAAUGGAUCCACAUCUACGAAUUCGUACCAUAGAGACGAGUUAUCCGCUCACCGAGAUCGGAAGAGCACACGU | 28 ± 7 nM |
| target 1 insU 3' of 5,insA 3' of 3 (mixed) RNA 1: CACCCGUGCAAAAAUGCAGGGGUCUAAAACUGAGCGGAUAACCUCUCUAUGG RNA 2: GGGAAUGGAUCCACAUCUACGAAUUCGUACCAUAGAGAGGUUAUCCGUCUACACCGAGAUCGGAAGAGCACACGU | 19.9 ± 1.7 nM |
| target 1 complement block 8-12 (mixed) RNA 1: CACCCGUGCAAAAAUGCAGGGGUCUAAAACUGAGCGGAUAACCUCUCUAUGG RNA 2: GGGAAUGGAUCCACAUCUACGAAUUCGUACCAUAGAGAGCAAUACCGCUCACCGAGAUCGGAAGAGCACACGU | 12.7 ± 0.8 nM |
| target 1 insG 3' of 20,insC 3' of 9 (mixed) RNA 1: CACCCGUGCAAAAAUGCAGGGGUCUAAAACUGAGCGGAUAACCUCUCUAUGG RNA 2: GGGAAUGGAUCCACAUCUACGAAUUCGUACCAGUAGAGAGGUUACUCCGCUCACCGAGAUCGGAAGAGCACACGU | ~45 nM |
| target 1 insU 3' of 5,insG 3' of 4 (mixed) RNA 1: CACCCGUGCAAAAAUGCAGGGGUCUAAAACUGAGCGGAUAACCUCUCUAUGG RNA 2: GGGAAUGGAUCCACAUCUACGAAUUCGUACCAUAGAGAGGUUAUCCGUCGUCACCGAGAUCGGAAGAGCACACGU | 12.7 ± 0.9 nM |
| target 1 insC 3' of 19,insC 3' of 3 (mixed) RNA 1: CACCCGUGCAAAAAUGCAGGGGUCUAAAACUGAGCGGAUAACCUCUCUAUGG RNA 2: GGGAAUGGAUCCACAUCUACGAAUUCGUACCAUCAGAGAGGUUAUCCGCUCCACCGAGAUCGGAAGAGCACACGU | 30 ± 4 nM |
